How the values were obtained:
[1] = biological target: T1, VEGF-121 (VEGFA isoform 121) (Homo sapiens, UniProt P15692 SEQ:1-121); assay: flow; conditions: chain copies: 2 (inferred)
Angiopoietin-2 (Ang2) [2] = biological target: T2, Angiopoietin-2 (Ang2) (Homo sapiens, UniProt O15123 O15123:19-496); assay: flow; conditions: tags: His tag, R&D Systems 623-AN
[3] = biological target: T1, VEGF-121 (VEGFA isoform 121); assay: flow; PBSMCT, 37 C; conditions: chain copies: 2 (inferred); label: biotin; stem-loop with bulges
Method: (§1) Truncated and modified variants of the anti-VEGF aptamers of the present disclosure were prepared by LGC Biosearch Technologies (Novato, Calif.), and their binding affinity to corresponding targets were examined. Briefly, the equilibrium binding constants of the enriched libraries were measured using magnetic bead partitioning. Biotinylated anti-VEGF aptamers were conjugated to the 1 μm streptavidin-coated MyOne Streptavidin Cl magnetic beads (Thermo Fisher Scientific, 65002). Binding assays were performed by incubating fixed concentration of anti-VEGF aptamer (0.01 nM) and target protein at concentrations ranging from 10⁻¹² to 10⁻⁸ M in PBSMCT buffer (DPBS, pH 7.2 with 2.5 mM MgCl₂, 1 mM CaCl₂) and 0.01% TWEEN-20) at 37° C. for 90 minutes. Bound target protein was partitioned by magnetic separation and subsequently labeled via fluorescent anti-VEGF or anti-His-tag antibody. The fraction of anti-VEGF aptamer bound was quantified by flow cytometry (BD Accuri C6 Plus). Raw binding data were corrected for nonspecific background binding of target protein to empty magnetic beads. The fraction of bound anti-VEGF aptamer was plotted as a function of protein concentration and a non-linear curve-fitting algorithm (Langmuir one-site binding model) was used to extract equilibrium binding constants (KD values) from the data (FIG. 1).

[4] = biological target: T3, VEGF-165 (VEGFA isoform 165) (Homo sapiens); assay: flow; PBSMCT, 37 C; conditions: chain copies: 2 (inferred); label: biotin; stem-loop with bulges
T3 chain: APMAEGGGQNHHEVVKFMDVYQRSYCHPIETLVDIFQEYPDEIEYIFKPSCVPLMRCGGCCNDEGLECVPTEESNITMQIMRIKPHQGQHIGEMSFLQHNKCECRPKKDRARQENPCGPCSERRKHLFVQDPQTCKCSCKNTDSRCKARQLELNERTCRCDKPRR
Method: as §1

[5] = biological target: T1, VEGF-121 (VEGFA isoform 121); assay: competition; blocks VEGF-R1 and VEGF-R2 binding; PBSMCT, 37 C; conditions: chain copies: 2 (inferred); label: biotin; stem-loop with bulges
Method: (§2) Three different recombinant VEGF receptors (two VEGF-R1 and one VEGF-R2) were tested (R&D Systems, 3516-FL, 321-FL, and 357-KD). […] VEGF-bound receptors and anti-VEGF aptamers were partitioned by magnetic separation, and the VEGF-bound VEGF receptors were subsequently labeled via a fluorescent anti-human antibody. The fraction of VEGF-bound receptor was quantified by flow cytometry (BD Accuri C6 Plus). Raw binding data were corrected for nonspecific background binding and normalized to the fluorescence intensity from the sample with 1 nM VEGF receptor but without anti-VEGF aptamer competition. The fraction of bound receptor was plotted as a function of anti-VEGF aptamer concentration and a non-linear curve-fitting algorithm (dose-response inhibition) was used to extract IC₅₀ values from the data (FIG. 2).

[6] = biological target: T3, VEGF-165 (VEGFA isoform 165); assay: as above; conditions: chain copies: 2 (inferred); label: biotin; stem-loop with bulges
Method: as §2

[7] = biological target: T1, VEGF-121 (VEGFA isoform 121); assay: flow; PBSMCT, 37 C; Table 6 gives a different value; conditions: chain copies: 2 (inferred); label: biotin; stem-loop with bulges
Method: as §1

[8] = biological target: T3, VEGF-165 (VEGFA isoform 165); assay: as above; conditions: chain copies: 2 (inferred); label: biotin; stem-loop with bulges
Method: as §1

[9] = biological target: T1, VEGF-121 (VEGFA isoform 121); assay: flow; PBSMCT, 37 C; Table 7 gives a different value; conditions: chain copies: 2 (inferred); label: biotin; stem-loop with bulges
Method: as §1

[10] = biological target: T3, VEGF-165 (VEGFA isoform 165); assay: as above; conditions: chain copies: 2 (inferred); label: biotin; stem-loop with bulges
Method: as §1

Angiopoietin-2 (Ang2) [11] = biological target: T2, Angiopoietin-2 (Ang2); assay: competition; blocks Ang2-Tie2; conditions: tags: His tag, R&D Systems 623-AN; label: 5'-biotin
Method: (§4) Ang2-bound Tie2 and anti-Ang2 aptamers were partitioned by magnetic separation, and the Ang2-bound Tie2 were subsequently labeled via a fluorescent anti-human antibody. The fraction of Ang2-bound receptor was quantified by flow cytometry (BD Accuri C6 Plus). Raw binding data were corrected for nonspecific background binding and normalized to the fluorescence intensity from the sample with 1 nM Tie2 but without anti-Ang2 aptamer competition. The fraction of bound receptor was plotted as a function of anti-Ang2 aptamer concentration and a non-linear curve-fitting algorithm (dose-response inhibition) was used to extract IC₅₀ values from the data (FIG. 4C).

Angiopoietin-2 (Ang2) [12] = biological target: T2, Angiopoietin-2 (Ang2); assay: competition; blocks Ang2-Tie2 binding; PBSMCT, 37 C; conditions: tags: His tag, R&D Systems 623-AN; label: biotin
Method: as §4

Angiopoietin-2 (Ang2) [13] = biological target: Angiopoietin-2 (Ang2) (Mus musculus, UniProt O35608 O35608:19-496); assay: flow; PBSMCT, 37 C; conditions: tags: R&D Systems 7186-AN; label: biotin
Method: (§3) Various mutations and truncated variants of a representative anti-Ang2 aptamer (AMS0525) were obtained and their binding affinity to Ang2 were measured using magnetic bead partitioning. Biotinylated anti-Ang2 aptamers were conjugated to the 1 μm streptavidin-coated MyOne Streptavidin Cl magnetic beads (Thermo Fisher Scientific, 65002). Binding assays were performed by incubating fixed concentration of aptamer (0.01 nM) and Ang2 protein at concentrations ranging from 10⁻¹² to 10⁻⁸ M in PBSMCT buffer (DPBS, pH 7.2 with 2.5 mM MgCl₂, 1 mM CaCl₂) and 0.01% TWEEN-20) at 37° C. for 90 minutes. Bound target protein was partitioned by magnetic separation and subsequently labeled via fluorescent anti-His-tag antibody. The fraction of anti-Ang2 aptamer bound was quantified by flow cytometry (BD Accuri C6 Plus). Raw binding data were corrected for nonspecific background binding of target protein to empty magnetic beads. The fraction of bound anti-Ang2 aptamer was plotted as a function of protein concentration and a non-linear curve-fitting algorithm (Langmuir one-site binding model) was used to extract equilibrium binding constants (KD values) from the data (FIG. 4A).

Angiopoietin-2 (Ang2) [14] = biological target: T2, Angiopoietin-2 (Ang2); assay: flow; PBSMCT, 37 C; conditions: tags: His tag, R&D Systems 623-AN; label: biotin
Method: as §3

Angiopoietin-1 (Ang1) = Angiopoietin-1 (Ang1) (Homo sapiens, UniProt Q15389 Q15389:16-498); assay: flow; does not recognize human Ang1; conditions: tags: R&D Systems 923-AN; label: biotin
Chain of Angiopoietin-1 (Ang1) (Q15389 16-498, one chain of several): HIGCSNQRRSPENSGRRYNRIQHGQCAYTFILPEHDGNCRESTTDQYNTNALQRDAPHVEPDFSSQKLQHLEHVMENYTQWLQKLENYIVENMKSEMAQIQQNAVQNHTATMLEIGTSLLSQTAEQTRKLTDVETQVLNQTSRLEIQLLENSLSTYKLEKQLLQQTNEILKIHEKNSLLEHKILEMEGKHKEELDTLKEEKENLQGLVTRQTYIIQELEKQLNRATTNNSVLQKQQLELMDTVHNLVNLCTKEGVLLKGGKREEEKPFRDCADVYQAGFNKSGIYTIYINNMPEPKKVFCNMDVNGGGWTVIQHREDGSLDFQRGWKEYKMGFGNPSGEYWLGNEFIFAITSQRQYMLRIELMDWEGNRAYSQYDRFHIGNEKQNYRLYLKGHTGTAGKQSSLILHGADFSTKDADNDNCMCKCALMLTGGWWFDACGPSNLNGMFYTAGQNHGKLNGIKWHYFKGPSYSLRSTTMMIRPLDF

T2 sequence (O15123 19-496, one chain of several): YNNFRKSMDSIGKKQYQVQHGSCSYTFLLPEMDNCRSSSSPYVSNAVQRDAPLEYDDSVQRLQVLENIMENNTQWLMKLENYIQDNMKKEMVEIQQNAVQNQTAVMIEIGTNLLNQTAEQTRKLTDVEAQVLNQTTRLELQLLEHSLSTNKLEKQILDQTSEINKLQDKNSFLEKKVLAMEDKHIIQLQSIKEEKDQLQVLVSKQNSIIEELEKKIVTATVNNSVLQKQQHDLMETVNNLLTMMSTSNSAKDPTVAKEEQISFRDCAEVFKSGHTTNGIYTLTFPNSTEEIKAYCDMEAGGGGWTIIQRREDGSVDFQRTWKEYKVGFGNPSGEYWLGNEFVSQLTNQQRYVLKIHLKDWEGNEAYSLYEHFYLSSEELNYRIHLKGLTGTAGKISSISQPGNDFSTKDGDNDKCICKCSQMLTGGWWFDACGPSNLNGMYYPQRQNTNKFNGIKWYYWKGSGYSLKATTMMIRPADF
Chain of Angiopoietin-2 (Ang2) (Mus musculus, UniProt O35608 O35608:19-496) (O35608 19-496, one chain of several): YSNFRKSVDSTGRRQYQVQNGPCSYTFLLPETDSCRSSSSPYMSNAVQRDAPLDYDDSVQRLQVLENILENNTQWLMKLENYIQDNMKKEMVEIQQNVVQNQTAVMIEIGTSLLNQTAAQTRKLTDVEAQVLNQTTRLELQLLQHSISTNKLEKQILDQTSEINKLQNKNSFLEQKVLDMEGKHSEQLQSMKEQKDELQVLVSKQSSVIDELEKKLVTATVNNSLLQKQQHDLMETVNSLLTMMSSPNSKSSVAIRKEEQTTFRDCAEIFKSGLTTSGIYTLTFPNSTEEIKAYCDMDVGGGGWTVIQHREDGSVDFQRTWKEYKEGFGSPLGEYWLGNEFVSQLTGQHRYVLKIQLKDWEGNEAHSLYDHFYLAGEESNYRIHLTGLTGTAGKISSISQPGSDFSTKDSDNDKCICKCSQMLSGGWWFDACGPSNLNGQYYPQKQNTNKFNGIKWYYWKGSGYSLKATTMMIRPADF

B1: AMSB106 (ssRNA)
RNA: CGCAUAGAUAAGCCAACAAACGUACAUUCUCUGUUAGUAUUUUCUGCGCGCUAGAUGGCUAACACUAUUGUGGAGAUGCACUAGCG
modifications: 2'-F all positions
- Kd ([1]; label: biotin): 0.043 nM
- Kd (Angiopoietin-2 (Ang2) [2]; label: biotin): 0.031 nM

Binder: CGCUAGAUGGCUAACACUAUUGUGGAGAUGCACUAGCG (ssRNA, 2'-F all positions) [AMS0427]
- Kd [3]: 0.045 nM
- Kd [4]: 0.091 nM
- IC50 [5]: ~0.1 nM
- IC50 [6]: ~0.1 nM

Binder: CGUGGAGAUGCAUUCUGUCGAAGAUUGGCUAACACG (ssRNA, 2'-F all positions) [AMS0426]
- Kd [7]: 0.086 nM
- Kd [8]: 0.151 nM
- IC50 [5]: ~0.1 nM
- IC50 [6]: ~0.1 nM
- Kd [9]: 0.214 nM
- Kd [10]: 0.349 nM

B2: AMSB103 (ssRNA)
RNA: CGCUAGAUGGCUAACACUAUUGUGGAGAUGCACUAGCGCGCAUAGAUAAGCCAACAAACGUACAUUCUCUGUUAGUAUUUUCUGCG
modifications: 2'-F all positions
- Kd ([1]; label: 5'-biotin): 0.039 nM
- Kd (Angiopoietin-2 (Ang2) [2]; label: 5'-biotin): 0.029 nM
- IC50 (Angiopoietin-2 (Ang2) [11]): < 0.1 nM

Binder: CGCAUAGAUAAGCCAACAAACGUACAUUCUCUGUUAGUAUUUUCUGCG (ssRNA, 2'-F all positions) [AMS0526]
- IC50 (Angiopoietin-2 (Ang2) [12]): 0.0839 nM
- Kd (Angiopoietin-2 (Ang2) [13]): < 0.1 nM
- Kd (Angiopoietin-2 (Ang2) [14]): 0.032 nM
- binding result (Angiopoietin-1 (Ang1)): no binding

B3: AMSB105 (ssRNA)
RNA: CGCAUAGAUAAGCCAACAAACGUACAUUCUCUGUUAGUAUUUUCUGCGCGUGGAGAUGCAUUCUGUCGAAGAUUGGCUAACACG
modifications: 2'-F all positions
- Kd ([1]; label: biotin): 0.123 nM
- Kd (Angiopoietin-2 (Ang2) [2]; label: biotin): 0.052 nM

Source: patent US20220073922, “Aptamers and use thereof” (Aptitude Medical Systems, Inc., published 2022)
